Common to all, as to conditions: both partners purified
Assay [1] concerns the target T1, plasmepsin 2 from Plasmodium falciparum (Plasmodium falciparum, UniProt P46925 125-453).
T1 construct: also called PfPM2; source: zymogen converted to mature enzyme at pH 4.5, 37°C, 5 min
In words: enzyme inhibition kinetics (Ki of competitive inhibition); initial cleavage velocities of a chromogenic peptide substrate at varied inhibitor concentration; plasmepsins pre-incubated in 100 mM sodium formate pH 4.5, 37°C, 5 min to convert zymogen to mature enzyme.

For assay [2], the target named is T2, plasmepsin 4 from Plasmodium falciparum (Plasmodium falciparum, UniProt Q8IM16 122-449).
T2 construct: also called PfPM4; source: zymogen converted to mature enzyme at pH 4.5, 37°C, 5 min
The assay is described as above.

Assay [3] deals with T3, plasmepsin 1 from Plasmodium falciparum (Plasmodium falciparum, UniProt P39898 124-452).
T3 construct: also called PfPM1
Description: enzyme inhibition kinetics (Ki of competitive inhibition); initial cleavage velocities of a chromogenic peptide substrate at varied inhibitor concentration; mature PfPM1 pre-incubated in 100 mM sodium citrate pH 5.5, 37°C, 3 min.

The target of assay [4] is T4, mature plasmepsin 4 of Plasmodium berghei (PbPM4), auto-matured from semi-proPbPM4 (Plasmodium berghei ANKA).
T4 construct: also called mature PbPM4; FV plasmepsin 4; source: converted to mature enzyme by 5 min pre-incubation in sodium citrate pH 5.0 at 37°C
In words: enzyme inhibition kinetics (Ki of competitive inhibition); initial cleavage velocities of a chromogenic peptide substrate at varied inhibitor concentration, spectrophotometric; proPbPM4 pre-incubated in 100 mM sodium citrate pH 5.0, 37°C, 5 min; tight-binding or non-tight-binding competitive fit.

Where no end group is shown, it is not given here. [ ]: non-standard residue; d: D form. Nle = CCCC[C@H](N)C(=O)O

As usually defined, the Ki is the equilibrium dissociation constant of an inhibitor or competing ligand from its target.

B1: compound 1 (KPYEFΨRQF), peptidomimetic inhibitor designed for PbPM4 (peptide)
peptide: KPYEFRQF
modifications: not fully specified (residue 5); printed as KPYEFΨRQF; also: Ψ pseudo-peptide bond between F5 and R6
notes: source: synthetic peptide
Turning to B1, the Ki is 35000 nM in assay [1], 190 ± 19 nM in assay [2] and over 100000 nM in assay [3].

In assay [4], KP[Nle]S[Nle]LQI (also: reduced amide Ψ[CH2-NH] between Nle5 and Leu6) [compound 3 (KPnLSnLΨLQI), peptidomimetic inhibitor designed for PfPM2] registered a Ki of 375 ± 54 nM.

Values taken from article PMC4624963, “Enzymatic Characterization of Recombinant Food Vacuole Plasmepsin 4 from the Rodent Malaria Parasite Plasmodium berghei” (PLoS ONE, 2015).
